This test has as its target T1, human Uba7 (human, UniProt P41226 1-1012, Cys599 crosslinked to UBE2L6 Cys86 (in the cryo-EM complexes only)).
T1 construct: also called hUba7; E1; source: E. coli BL21 codon plus or Hi5 insect cells (baculovirus), purified (Ni-NTA, Superdex 200, Enrich Q); not shown: His6 (insect cell construct), N-terminal, cleaved
T1 sequence: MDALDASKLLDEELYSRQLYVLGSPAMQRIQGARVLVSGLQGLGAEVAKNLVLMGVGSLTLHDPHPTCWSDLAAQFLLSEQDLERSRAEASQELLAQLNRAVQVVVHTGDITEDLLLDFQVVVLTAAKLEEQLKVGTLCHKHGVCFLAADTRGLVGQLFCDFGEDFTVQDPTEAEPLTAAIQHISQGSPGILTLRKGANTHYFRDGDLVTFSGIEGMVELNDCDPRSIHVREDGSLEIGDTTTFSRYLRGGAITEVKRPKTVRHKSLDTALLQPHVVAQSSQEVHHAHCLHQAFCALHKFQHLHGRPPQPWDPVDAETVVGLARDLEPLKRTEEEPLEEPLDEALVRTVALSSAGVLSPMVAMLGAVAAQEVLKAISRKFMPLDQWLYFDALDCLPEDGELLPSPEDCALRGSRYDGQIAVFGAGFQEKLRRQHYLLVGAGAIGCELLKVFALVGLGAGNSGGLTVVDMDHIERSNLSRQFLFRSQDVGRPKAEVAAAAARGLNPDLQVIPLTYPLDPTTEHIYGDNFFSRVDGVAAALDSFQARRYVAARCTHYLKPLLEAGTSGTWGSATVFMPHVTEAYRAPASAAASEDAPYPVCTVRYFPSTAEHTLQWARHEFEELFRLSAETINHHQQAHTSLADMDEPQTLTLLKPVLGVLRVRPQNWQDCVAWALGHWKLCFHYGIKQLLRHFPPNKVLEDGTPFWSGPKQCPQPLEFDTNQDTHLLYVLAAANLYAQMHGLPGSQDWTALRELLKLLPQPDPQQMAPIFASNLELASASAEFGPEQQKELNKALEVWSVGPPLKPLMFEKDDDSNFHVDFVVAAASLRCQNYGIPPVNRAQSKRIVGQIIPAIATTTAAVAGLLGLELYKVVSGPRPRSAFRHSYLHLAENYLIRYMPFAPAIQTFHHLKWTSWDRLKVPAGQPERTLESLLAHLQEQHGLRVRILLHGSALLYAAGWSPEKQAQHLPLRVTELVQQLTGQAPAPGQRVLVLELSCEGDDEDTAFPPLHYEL
Briefly: cryo-EM structure; double-loaded Uba7-UBE2L6-ISG15(t)/ISG15(a) mimetic: ISG15 C76S isopeptide-linked to UBE2L6 L121K, UBE2L6 Cys86 (Aldrithiol-4 activated) crosslinked to Uba7 Cys599, then 1.2 molar excess of ISG15, ATP and Mg2+ for 30 min at 4 °C; frozen at 3.0 mg/ml. The settings on record: both partners purified.

B1: UBE2L6 (C98S/C102S/L121K) (enzyme, human)
chain: MASMRVVKELEDLQKKPPPYLRNLSSDDANVLVWHALLLPDQPPYHLKAFNLRISFPPEYPFKPPMIKFTTKIYHPNVDENGQICLPIISSENWKPSTKTSQVLEALNVLVNRPNIREPKRMDLADLLTQNPELFRKNAEEFTLRFGVDRPS
modifications: Lys121 (L121K) isopeptide-linked to Gly157 of ISG15 C76S; Cys86 activated with Aldrithiol-4 and crosslinked to Uba7 Cys599
notes: The 6XHis-tag was cleaved with TEV protease 'when required'; source: E. coli BL21 codon plus, purified (Ni-NTA, Superdex 75, Enrich Q)
Regarding B1, the binding result is given as “binds”.

The record behind these values is article PMC10409785 (Nature Communications, 2023).
